Experimental data reported in article PMC3250429, “Recombinant Probiotic Expressing Listeria Adhesion Protein Attenuates Listeria monocytogenes Virulence In Vitro” (PLoS ONE, 2012).

Molecular target: human Hsp60 (human, UniProt P10809 27-573, biotin (biotinylated Hsp60, site not stated))
Experiment: cell-based or functional assay

human Hsp60, sequence (P10809 27-573): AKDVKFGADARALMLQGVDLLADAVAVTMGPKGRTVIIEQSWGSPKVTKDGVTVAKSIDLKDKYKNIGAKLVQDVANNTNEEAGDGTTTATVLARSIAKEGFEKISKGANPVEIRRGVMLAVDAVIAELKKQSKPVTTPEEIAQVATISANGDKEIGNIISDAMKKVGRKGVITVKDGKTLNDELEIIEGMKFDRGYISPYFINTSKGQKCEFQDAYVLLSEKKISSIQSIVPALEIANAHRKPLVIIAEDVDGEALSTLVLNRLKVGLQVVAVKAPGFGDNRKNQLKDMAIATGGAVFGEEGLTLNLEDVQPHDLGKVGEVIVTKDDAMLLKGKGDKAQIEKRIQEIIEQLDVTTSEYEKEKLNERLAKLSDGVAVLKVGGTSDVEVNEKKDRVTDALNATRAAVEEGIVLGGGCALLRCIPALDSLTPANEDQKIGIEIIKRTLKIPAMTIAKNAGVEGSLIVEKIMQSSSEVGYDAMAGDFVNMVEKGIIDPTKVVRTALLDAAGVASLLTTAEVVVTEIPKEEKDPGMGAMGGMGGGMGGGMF

B1: Listeria adhesion protein (LAP) of L. monocytogenes expressed on recombinant Lactobacillus paracasei (Lbp^LAP) (natural protein)
chain: MAIKENAAQEVLEVQKVIDRLADNGQKALKAFESYNQEQVDNIVHAMALAGLDQHMPLAKLAVEETGRGLYEDKCIKNIFATEYIWNNIKNNKTVGVINEDLQTGVIEIAEPVGVVAGVTPVTNPTSTTLFKAIIAIKTRNPIIFAFHPSAQRCSSAAAKVVYDAAIAAGAPEHCIQWVEKPSLEATKQLMNHDKVALVLATGGAGMVKSAYSTGKPALGVGPGNVPAYIDKTAKIKRSVNDIILSKSFDQGMICASEQAVIVDKEVAKEVKAEMEANNCYFVKGAEFKKLESYVINPEKGTLNPDVVGKSPAWIANQAGFKVPEDTKILVAEIKGVGDKYPLSHEKLSPVLAFIEAANQAEAFDRCEEMLVYGGLGHSAVIHSTDKEVQKAFGIRMKACRIIVNAPSAQGGIGDIYNGFIPSLTLGCGSYGKNSVSQNVSATNLLNVKRIADRRNNMQWFKLPPKIFFEKYSTQYLQKMEGVERVFIVTDPGMVQFKYVDVVIEHLKKRGNDVSYQVFADVEPDPSDVTVYKGAELMKDFKPDTIIALGGGSAMDAAKGMWLFYEHPEASFFGLKQKFLDIRKRTFKYPKLGGKAKFVAIPTTSGTGSEVTPFAVITDKENNIKYPLADYELTPDVAIVDAQYVTTVPAHITADTGMDVLTHAIESYVSVMASDYTRGLSIRAIELVFENLRESVLTGDPDAREKMHNASALAGMAFANAFLGINHSLAHKIGPEFHIPHGRANAILMPHVIRYNALKPKKHALFPRYESFRADEDYARISRIIGFPAATTEEGVKSLVDEIIKLGKDVGIDMSLKGQNVAKKDLDAVVDTLADRAFMDQCTTANPKQPLVSELKEIYLEAYKGV
Q: For B1, which “transepithelial translocation of Lbp^LAP cells through Caco-2 monolayers (transwell, 2 h), against Lbp^WT” value is on record?
A: 5.1 fold
